The test deals with mouse OX40-His (Cat: ab221028, Abcam) (mouse) (UniProt P47741). Briefly: ELISA on coated mouse OX40-His. In general terms: ELISA stands for enzyme-linked immunosorbent assay.
mouse OX40-His (Cat: ab221028, Abcam) (mouse), sequence (P47741 20-211 limits assumed): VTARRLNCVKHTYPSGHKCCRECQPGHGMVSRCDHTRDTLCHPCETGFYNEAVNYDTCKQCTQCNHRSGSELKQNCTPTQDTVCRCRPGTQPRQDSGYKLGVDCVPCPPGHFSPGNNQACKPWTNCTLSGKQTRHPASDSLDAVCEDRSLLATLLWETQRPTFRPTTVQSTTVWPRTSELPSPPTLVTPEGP

B1: 1A7.gr1 (antibody, from another filing, V domains shown)
VH: EVQLVQSGAEVKKPGASVKVSCKASGYTFTDSYMSWVRQAPGQGLEWIGDMYPDNGDSSYNQKFRERVTITRDTSTSTAYLELSSLRSEDTAVYYCVLAPRWYFSVWGQGTLVTVSS
VL: DIQMTQSPSSLSASVGDRVTITCRASQDISNYLNWYQQKPGKAPKLLIYYTSRLRSGVPSRFSGSGSGTDFTLTISSLQPEDFATYYCQQGHTLPPTFGQGTKVEIK
Consider B1, for which the concentration for a half-maximal effect (EC50) (commonly the concentration giving half of the maximal effect) came out at 0.11 µg/mL.

These data come from patent publication US20230011916A1, “METHODS OF CANCER TREATMENT USING ANTI-OX40 ANTIBODIES IN COMBINATION WITH PI3 KINASE DELTA INHIBITORS” (BEIGENE, LTD., priority 2019, published 2023).
